Measured values: publication PMC10530332

Key:
[1] = molecular target: natural nurse shark UrIg (nurse shark (Ginglymostoma cirratum) (endogenous in nurse shark tissues)); assay: non-reducing SDS-PAGE with western blot
[2] = molecular target: recombinant UrIg, 4-domain molecule (V-C1-C2-C3) with C-terminal His tag (nurse shark (Ginglymostoma cirratum)); assay: SDS-PAGE, non-reducing against reducing
[3] = molecular target: recombinant UrIg, 4-domain molecule (V-C1-C2-C3) with C-terminal His tag (nurse shark (Ginglymostoma cirratum)); assay: SEC

Substance | stoichiometry N [1] | stoichiometry N [2] | stoichiometry N [3]
natural nurse shark UrIg (natural protein) | 2 | – | –
recombinant UrIg, 4-domain molecule (V-C1-C2-C3) with C-terminal His tag (natural protein) | – | 2 | 2
